Laboratory results from paper PMC12415261 (Proceedings of the National Academy of Sciences of the …, 2025).

B1: ALK3-Fc (homodimeric Fc-fusion of ALK3-ECD) [human] / Recombinant human BMP6, mammalian expressed (glycosylated) [modified: N-linked glycosylation at Asn454 (prehelical loop); N-linked glycosylation at Asn454 (prehelical loop)] [human] (parent complex)
chain 1: QNLDSMLHGTGMKSDSDQKKSENGVTLAPEDTLPFLKCYCSGHCPDDAINNTCITNGHCFAIIEEDDQGETTLASGCMKYEGSDFQCKDSPKAQLRRTIECCRTNLCNQYLQPTLPPVVIGPFFDGSIR
chain 2: SASSRRRQQSRNRSTQSQDVARVSSASDYNSSELKTACRKHELYVSFQDLGWQDWIIAPKGYAANYCDGECSFPLNAHMNATNHAIVQTLVHLMNPEYVPKPCCAPTKLNAISVLYFDDNSNVILKKYRNMVVRACGCH

Variants of: B1
Experiment: SPR; top curve of the analyte series, read at the end of association (about 300 s); analyte concentrations not given; receptor-Fc captured by anti-human antibody; read off a plot

| response [RLU] | Variant |
| --- | --- |
| ~9.5 | chain 1 QNLDSMLHGTGMKSDSDQKKSENGVTLAPEDTLPFLKCYCSGHCPGDAINNTCITNGHCFAIIEEDDQGETTLASGCMKYEGSDFQCKDSPKAQLRRTIECCRTNLCNQYLQPTLPPVVIGPFFDGSIR [chain 1 D46G] |
